Drawing on US20240132578A1, this text covers IC50 (ug/ml), pseudovirus neutralization, TZM-bl assay, IC50, pseudovirus neutralization (TZM-bl assay) and IC50, pseudovirus neutralization (TZM-bl assay), control virus for four molecules.

Holding throughout (assay): cell-based or functional assay
For assay [1], the target named is HIV-1 JR-FL Env E168K, on pseudovirus (HIV-1 isolate JR-FL (clade B)).
For assay [2], the target named is HIV-1 Env of pseudovirus Du172 (HIV-1).
Assay [3] has as its target HIV-1 Env of pseudovirus CAP45 (HIV-1).
Assay [4] concerns the target HIV-1 Env of pseudovirus TR0.11 (HIV-1).
Assay [5] deals with HIV-1 Env of pseudovirus ZM249 (HIV-1).
The target of assay [6] is HIV-1 Env of pseudovirus THRO.18 (HIV-1).
Assay [7] addresses HIV-1 Env of pseudovirus AC10 (HIV-1).
In assay [8] the target is HIV-1 92RW020 envelope glycoprotein (Env), on pseudovirus (HIV-1 isolate 92RW020 (clade A)).
The target in assay [9] is HIV-1 Env of pseudovirus DU156 (HIV-1).
In assay [10] the target is HIV-1 Env of pseudovirus ZM214 (HIV-1).
Assay [11] has as its target HIV-1 Env of pseudovirus ZM233 (HIV-1).
In assay [12] the target is HIV-1 Env of pseudovirus CAAN (HIV-1).
Assay [13] addresses Envelope protein of control pseudovirus MuLV (MuLV).
Assay [14] addresses HIV-1 Env of pseudovirus REJ04541 (HIV-1).
In assay [15] the target is HIV-1 Env of pseudovirus DU422 (HIV-1).
Assay [16] addresses HIV-1 Env of pseudovirus PVO.4 (HIV-1).
Assay [17] has as its target HIV-1 ADA envelope glycoprotein (Env), on pseudovirus (HIV-1 isolate ADA).

B1: 1503_H05 (PG16) (TCN-119) (antibody, V domains shown)
VH: QEKLVESGGGVVQPGGSLRLSCLASGFTFHKYGMHWVRQAPGKGLEWVALISDDGMRKYHSDSMWGRVTISRDNSKNTLYLQFSSLKVEDTAMFFCAREAGGPIWHDDVKYYDFNDGYYNYHYMDVWGKGTIVTVSS
VL: QSALTQPASVSGSPGQTITISCNGTRSDVGGFDSVSWYQQSPGKAPKVMVFDVSHRPSGISNRFSGSKSGNTASLTISGLHIEDEGDYFCSSLTDRSHRIFGGGTKVTVLG
For the molecule B1, the figures for the IC50 (ug/ml), pseudovirus neutralization, TZM-bl assay in assay [1], in [8] and in assay [17] were 0.002 µg/mL, 0.02 µg/mL and 0.003 µg/mL, respectively. In addition, the IC50, pseudovirus neutralization (TZM-bl assay) in [2] was less than 0.01 µg/mL; in [3] it was less than 0.01 µg/mL; in assay [4], 4.3 µg/mL; in [5], less than 0.01 µg/mL; in assay [6] it was 4.12 µg/mL; in assay [7], less than 0.01 µg/mL. For the same molecule, the IC50, pseudovirus neutralization (TZM-bl assay) is less than 0.01 µg/mL in assay [9]; greater than 25 µg/mL in [10]; less than 0.01 µg/mL in assay [11]; 13.5 µg/mL in assay [12]; 0.22 µg/mL in [14]; 0.71 µg/mL in assay [15]. This molecule also registered an IC50, pseudovirus neutralization (TZM-bl assay) in assay [16] of 11 µg/mL. Besides, the IC50, pseudovirus neutralization (TZM-bl assay), control virus in assay [13] was greater than 25 µg/mL.

B2: 1456_A12 (PG16) (TCN-117) (antibody, V domains shown)
VH: HEQLVEAGGGVVQPGGSLRLSCLASGFTFHKYGMHWVRQAPGKGLEWVALISDDGMRKYHSDSMWGRVTISRDNSKNTLYLQFSSLRVEDTAMFFCAREAGGPIWHDDVKYYDFNDGYYNYHYMDVWGKGTKVTVSS
VL: QSALTQPASVSGSPGQTITISCNGTSRDVGGFDSVSWYQQSPGKAPKVMVFDVSHRPSGMSNRFSGSKSGNTASLTISGLHIEDEGDYFCSSLTDRSHRIFGGGTKLTVLG
Turning to B2, the IC50 (ug/ml), pseudovirus neutralization, TZM-bl assay in assay [1] amounted to 0.003 µg/mL; in assay [8] it was 0.05 µg/mL; in [17], 0.005 µg/mL. In addition, the IC50, pseudovirus neutralization (TZM-bl assay) in assay [2] is less than 0.01 µg/mL; in assay [3], less than 0.01 µg/mL; in assay [4], 3.05 µg/mL; in assay [5], less than 0.01 µg/mL; in assay [6], 2.08 µg/mL; in assay [7] it was less than 0.01 µg/mL. In addition, the IC50, pseudovirus neutralization (TZM-bl assay) in [9] is less than 0.01 µg/mL; in assay [10] it was greater than 25 µg/mL; in assay [11], less than 0.01 µg/mL; in assay [12] it was 10.6 µg/mL; in assay [14] it was less than 0.01 µg/mL; in [15], 0.36 µg/mL. For the same molecule, in assay [16], the IC50, pseudovirus neutralization (TZM-bl assay) stood at 10.4 µg/mL. In addition, in assay [13], the IC50, pseudovirus neutralization (TZM-bl assay), control virus is greater than 25 µg/mL.

B3: 1489_I13 (PG16) (TCN-120) (antibody, V domains shown)
VH: QEQLLESGGGVVQPGGSLRLSCLASGFTFHKYGMHWVRQAPGKGLEWVALISDDGMRKYHSNSMWGRVTISRDNSKNTLYLQFSSLKVEDTAMFFCAREAGGPIWHDDVKYYDFNDGYYNYHYMDVWGKGTTVTVSS
VL: QSALTQPASVSGSPGQTITISCNGTSSDVGGFDSVSWYQQSPGKAPKVMVFDVSHRPSGISNRFSGSKSGNTASLTISGLHIEDEGDYFCSSLTDRSHRIFGGGTKVTVLG
Regarding B3, the IC50 (ug/ml), pseudovirus neutralization, TZM-bl assay was found to be 0.005 µg/mL in [1], 0.03 µg/mL in [8] and 0.008 µg/mL in [17]. Further, the IC50, pseudovirus neutralization (TZM-bl assay) in [2] is less than 0.01 µg/mL; in assay [3] it was less than 0.01 µg/mL; in [4], 10.9 µg/mL; in [5] it was less than 0.01 µg/mL; in assay [6] it was 7.41 µg/mL; in assay [7] it was less than 0.01 µg/mL. The IC50, pseudovirus neutralization (TZM-bl assay) is less than 0.01 µg/mL in assay [9]; greater than 25 µg/mL in assay [10]; less than 0.01 µg/mL in assay [11]; 24.9 µg/mL in [12]; 0.34 µg/mL in [14]; 1.87 µg/mL in assay [15]. The IC50, pseudovirus neutralization (TZM-bl assay) in [16] came to 20.6 µg/mL. In assay [13], this molecule registered an IC50, pseudovirus neutralization (TZM-bl assay), control virus greater than 25 µg/mL.

B4: 1469_M23 (PG16) (TCN-118) (antibody, V domains shown)
VH: QEKLVESGGGVVQPGGSLRLSCLASGFTFHKYGMHWVRQAPGKGLEWVALISDDGMRKYHSDSMWGRVTISRDNSKNTLYLQFSSLKVEDTAMFFCAREAGGPIWHDDVKYYDFNDGYYNYHYMDVWGKGTTVTVSS
VL: QSALTQPASVSGSPGQTITISCNGTRSDVGGFDSVSWYQQSPGRAPKVMVFDVSHRPSGISNRFSGSKSGNTASLTISGLHIEDEGDYFCSSLTDRSHRIFGGGTKLTVLG
As for B4, the IC50 (ug/ml), pseudovirus neutralization, TZM-bl assay in assay [1] was 0.005 µg/mL; in assay [8], 0.05 µg/mL; in assay [17] it was 0.005 µg/mL. In addition, the IC50, pseudovirus neutralization (TZM-bl assay) was less than 0.01 µg/mL in [2]; less than 0.01 µg/mL in assay [3]; 7.52 µg/mL in assay [4]; less than 0.01 µg/mL in assay [5]; 7.01 µg/mL in assay [6]; less than 0.01 µg/mL in [7]. The IC50, pseudovirus neutralization (TZM-bl assay) was less than 0.01 µg/mL in assay [9]; greater than 25 µg/mL in assay [10]; less than 0.01 µg/mL in assay [11]; 17.7 µg/mL in assay [12]; 0.39 µg/mL in assay [14]; 0.97 µg/mL in assay [15]. In [16], this molecule showed an IC50, pseudovirus neutralization (TZM-bl assay) of 21.2 µg/mL. In assay [13], this molecule had an IC50, pseudovirus neutralization (TZM-bl assay), control virus greater than 25 µg/mL.
